Experimental data taken from PMC3905071.

Key:
[1] = target: YB-1 (WT) (UniProt P67809 1-324); assay: EMSA and filter binding
[2] = target: YB-1 (1-219), truncated (UniProt P67809 1-219); assay: EMSA and filter binding
YB-1 (1-219), truncated, sequence (P67809 1-219): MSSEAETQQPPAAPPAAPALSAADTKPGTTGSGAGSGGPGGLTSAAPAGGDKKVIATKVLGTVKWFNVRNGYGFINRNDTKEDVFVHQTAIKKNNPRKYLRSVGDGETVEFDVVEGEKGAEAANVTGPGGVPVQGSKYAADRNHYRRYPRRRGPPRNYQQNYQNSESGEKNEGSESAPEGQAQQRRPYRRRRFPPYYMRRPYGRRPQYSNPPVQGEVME

YB-1 (WT), sequence (P67809 whole entry, the tested form may be a part): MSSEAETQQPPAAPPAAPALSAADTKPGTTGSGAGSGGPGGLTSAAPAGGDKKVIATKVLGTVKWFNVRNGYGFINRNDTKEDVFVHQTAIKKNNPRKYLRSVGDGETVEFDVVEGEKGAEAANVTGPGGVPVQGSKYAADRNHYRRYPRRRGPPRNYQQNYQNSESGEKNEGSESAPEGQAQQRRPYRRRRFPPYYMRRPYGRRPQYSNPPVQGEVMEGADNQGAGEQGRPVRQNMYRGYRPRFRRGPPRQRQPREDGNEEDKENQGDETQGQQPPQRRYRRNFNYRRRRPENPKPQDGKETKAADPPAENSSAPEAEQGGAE

B1: 18-nt Y-box ssDNA (ssDNA)
DNA: AAACTGATTGGCCAAAAA
[1]
  binding result: binds
[2]
  binding result: binds
